Source: the DeepSol protein solubility set

Experiment: soluble on expression in E. coli; label from the status in PepcDB or PDB records

Row | Sequence | soluble on expression in E. coli
1 | MEGLLIDYVQPGSIAEELEIEAGDRLVAINGQDLRDIIDFSFYAHDEELALEIVKPSGDHWEAEIERDGDEPLGLVFAPPVPAQCGNKCVFCFVHQLPKGLRRPLYVKDEDYRLSFLYGNYVTLSNIRRGDLDRIVAQRLSPLYISVHATNPALRERLLGRSEILPILDLMRELAAARIVMHSQIVLCPGLNDGVELEKTVRDLAGLHPWVESLAIVPIGLTKHRRGLPALEPVTASYAETFVQNWQPAAERLERELGAPFLFIADEFYIKAGLPFPPLETYGDLPQIENGVGMIPLFLDESERVLKKARKGKPVTVTVVTGESPYRYLAAFLERLSVRTGATFKPVAVHNRLFGESVTVTGLVAGSDIVEELSGRDLGDAVLVPDVMLKEGEGIFLDDLSVDGLGKSLGTRVLVVEATPQGVVDALRRVRSMLEHHHHHH | not soluble
2 | GMTAPTLSRAAMEKVIRTYYDGCNEADEAKMIACFVPEAVHYFPAGMYGGAFRGAAQIAHRWRTAVETLGSYWTIDALVIDAETAEAAIEWTHFKTNQDKVLRGAECVEFDRASGLIREIRAFYASPQAEGIARLELGDFDYAGRGYRVTSPRKPA | soluble
3 | MLNSVKKLLGDSQKRKLKKYEQLVQEINNLEEKLSDLSDEELRHKTITFKDMLRDGKTVDDIKVEAFAVVREAAKRVLGLRHYDVQLIGGLVLLEGNIAEMPTGEGKTLVSSLPTYVRALEGKGVHVITVNDYLAKRDKELIGQVHEFLGLKVGLNIPQIDPSEKKLAYEADITYGIGTEFGFDYLRDNMAASKNEQVQRPYHFAIIDEIDSVLIDEAKTPLIIAGKKSSSSDLHYLCAKVIKSFQDTLHYTYDAESKSASFTEDGITKIEDLFDIDNLYDLEHQTLYHYMIQALRAHVAFQCDVDYIVHDEKILLVDIFTGRVMDGRSLSDGLHQALEAKEGLEITEENQTQASITIQNFFRMYPALSGMTGTAKTEEKEFNRVYNMEVMPIPTNRPIIREDKKDVVYVTADAKYKAVREDVLKHNKQGRPILIGTMSILQSETVARYLDEANITYQLLNAKSAEQEADLIATAGQKGQITIATNMAGRGTDILLGEGVHELGGLHVIGTERHESRRVDNQLKGRAGRQGDPGSSQFFLSLEDEMLKRFAQEEVEKLTKSLKTDETGLILTSKVHDFVNRTQLICEGSHFSMREYNLKLDDVINDQRNVIYKLRNNLLQEDTNMIEIIIPMIDHAVEAISKQYLVEGMLPEEWDFASLTASLNEILSVENMPSLSANNVHSPEDLQSVLKETLSLYKERVNELDSNTDLQQSLRYVALHFLDQNWVNHLDAMTHLKEGIGLRQYQQEDPTRLYQKEALDIFLYTYGNFEKEMCRYVARHLGVPENVQ | not soluble
4 | GHFAPQQMKEAIEIYKTLFEPSDVLDEPYVIVCLNTIVAENDDEAQYLASSMAQVMVSITRGRMQPVQPPTHDLQNILTPREYAMAMERQKISLIGSENTVQQKIQDFMETYGEVNEIMAISYIYDKDMQLDSYRRFKN | not soluble
5 | MGHHHHHHSHMAERETETSNSESKQDKAASSKEKNGCNANSFEGSSTTKSEESITVSDKENETCLADQETGSKNIVSCDSNIGADKVEKKKQIQHVCQEMELKMCQSSENIILSDQIKDHNSSEARFSSKNIKDLRLASDNVSIDQFLRKRHEPESVSSDVSEQGSIHLEPLTPSEVLEYEATEILQKGSGDPSAKTDEVVSDQTDDIPGGNNPSTTEATVDLEDEKERS | soluble
6 | MGSDKIHHHHHHMTIQKHFPTVEMADIHFELIGGLSSQSWRIRGPGIEWLARRQSPVERKMGVDRQREFALLRQMSAVGLAPRPLLWRDGWLIVEWVPGRIATSDEFLMMLANGEVARVLSQLHRQPRSGHPLNFKILFAQHWQLMDPCRRSPALLRAHHHFQRAALPTPLALVPLHLDVHAENLLITPQGTMLIDWEYASDGDIAFELAFIVRASQMDSVAQTYFLQSYQRHRRGFSVSRLQQQMMQWFPWVDYLVLMWFEVRWQQTKNLEFLAEIPALRHRLQLG | not soluble
7 | MSLGEKSRETSSPWSSTILLVKITSADGLVGYGEAPTTLMTLPVLESMKEVARVFNGKDFFNVERNVFDFYRNSFYLPVSMEATSALSAFEIASWDLIGKQLGTPVYKLLGGEVNQKMRAYANGWYNDCVSPDDFLKKAKEVVKMGFTAMKFDPFGDNYDSITNDGLENARNIVGTLRSELGDKVDLLIEYHGRFSKIAAIKAGMALEEYHPFFYEEPLHPDLDHDLLDLKNYYRVPIALGERVLNKKIFARFISQKLVDIIQPDLTNSGGILEGKKIAAIADGFGIPVAPHNAFGPIQTAATLNLDTTITNFIIQESFEMFWPDWKKKLVSSGYKLENGYFTLTNEPGVCKVNEDIVEKYQVSGMEPFDDKEPPWVVSGTFKPYRQKEGHHHHHH | not soluble
8 | MGSDKIHHHHHHMSANTQSMIFTVYGDYIRHYGNQIWVGSLIRLLKEFGHNEQAVRVAVSRMVKQGWLTSQKQGTKSFYSLTPRGVERMEEAARRIYKSTPHVWDGKWRTLMYTIPEDKRQIRDELRKELSWSGFGNLSNGVWISPNPLEKEAERLIEAYDIKAYIDFFVGEYHGPQQDQSLVERAFPLDELQERYEQFIAEYSRRYIVHQSRIQLGEMDEEQCFVERTTLVHEYRKFLFTDPGLPQELLPDEWSGHHAALLFEQYYRLLAEPASRFFESIFRETHDVTQKSADYDASEHPLFAER | not soluble
9 | MGSDKIHHHHHHMIIGDKRLDVIHNIKQAANERNFTAKTEIGDPVMSSEEKLALVEGFWQKQDQAKTKFDGTVGHELLQLLTKTISGSTKVNGLGKLKGLPKGGAIVTANHFNQVDALAVNRLAQKAHRRMDIVIEDTNLMLPGFFSYIMNNMGSIPLTQSPNYLGREFIQHLNQAFNQNHWVLIFPEQEMWWNYRKPRKPQRGAYYFAAKCNVPVISTFVEIQDLPKLEKQNEHFYQTRYTVHVLDVLYPDPTKTASENASRLMEEDYKLKVQAYERVYKKKLDYDFTSWDIAGWRGE | not soluble
10 | MGSDKIHHHHHHMQTFHELEQTQSVIATILRNSLQTNRINHAYIFTGDYEPLLLEAAQLFAKSLFCERRDQIEPCQTCRSCRRMDSGNLVDYYQIEPDGATIKKEQIQELMHDLSLRGLEGDRQIYVVTQSHKMTPQAANSLLKFFEEPGAGKVAILITNQPQLLLPTIRSRGQLLSFRPADRLLIGQVLSEKTGRDNELTQLAARVYPKIEDAEQALVEDWFVNARVSVLQLMEELANRPADLPLFVQEKWMSQFKNRQDARIGLELVTCFFEDVLHLKLNPSWETITYANSRPLLEQMGGKSQTTITRWLQAVLAAVKRIEANVNPQLTVERLMFDLQKG | not soluble
11 | MGSDKIHHHHHHMTMTNTPRQDSPFEKPVRVRAGFSLTFDVPYATPMIFVVQPQDRLSPTGTRQRIIDQRPLAAAEGIHTYTDTHGNLIWRTVAQPGEFTIGHDLIAEIERRPDPQLPGLRKMMVEELPDDVLQYLLPSRYVDSDLVSAEAWERFGNVQGGWAQVQAVCDYLFDTCVYGYGSNSTTTASQALGSGRAVCRDFAHMGVAFCRALNIPARYVCGYMPDIDYPPDPVPMDFHAWFEAFIDGEWRTFDARHNIPRTGRVLIAQGRDASDVAFTTSFGSAKLVNMKVWADETDFDNTLDIAPNPRIF | not soluble
12 | MSLTASQQPTASQDPTRIDALVIGAGFGGMYAVHKLSGMGLSVQGFEAGGDVGGVWYWNRYPGARCDLMSLDYCYSFSPDIEQEWTWSEQFAAQSEILAYANFVADRLDLRRHFLFETWVTGAAYDEAANVWRVTVDDGRVFEATYCVMASGPLSIPKGVPFDGADDFKGEILLAAKWPHTPVSFEGKRVGLVGTGSTGIQIVPEVAKTAGALTVFQRTPSFTLPMRNVTLEPDYVAELKRNYAGIRQVARNSPLGGVRPQSTRPFFSVTPEQRRALMEDSWARGGLSFLGTFSDLLVNPEANEQVAEFVRSKISEVVTDPVTAEKLKPRGYPIFARRPCLDTHYYETFNLPHVKLHDCLESPIVKITPAGLLTETGEVELDVLIFATGYDGLTGALLNFDVVGRGGLQLRDKWRDGAKSHLGLMIASFPNLFLVCGPNGPAALANIITLDQQNIDWIADAITHMRQEGLATIEPTEGAEQGWMDMVYGMAELTLVSKANTWYVGGNISGKPRGLSMYTGGFQRYSEACRLAAEKGYEDFVFEKAATKQGARSEGHHHHHH | soluble
13 | FCGRARVHTDFTPSPYDTDSLKLKKGDIIDIISKPPMGTWMGLLNNKVGTFKFIYVDVLS | soluble
14 | MATGDGKSVMVVGVDDSEQSTYALEWTLDRFFAPYAPNYPFKLFIVHAKPNAVSAVGLAGPGTAEVVPYVDADLKHTAAKVVEKAKAICQSRSVHGAVIEVFEGDARNILCEVVDKHHASILVVGSHGYGAIKRAVLGSTSDYCAHHAHCSVMIVKKPKIKV | soluble
15 | MRGSHHHHHHGMASMSVSTASTEMSVRKIAAHMKSNPNAKVIFMVGAGISTSCGIPDFRSPGTGLYHNLARLKLPYPEAVFDVDFFQSDPLPFYTLAKELYPGNFRPSKFHYLLKLFQDKDVLKRVYTQNIDTLERQAGVKDDLIIEAHGSFAHCHCIGCGKVYPPQVFKSKLAEHPIKDFVKCDVCGELVKPAIVFFGEDLPDSFSETWLNDSEWLREKITTSGKHPQQPLVIVVGTSLAVYPFASLPEEIPRKVKRVLCNLETVGDFKANKRPTDLIVHQYSDEFAEQLVEELGWQEDFEKILTAQ | soluble
16 | MIATGDALNLLSKMTFKRLITLLKVFVSYQYSKITGNVVHPSVPYSIAIEPTTSCNLRCPECPSGLRSFTRPTGMLNIAMFSKIIDELYQQISYLIFYFQGEPYLNTSFLEMVKYASSKGIYTATSTNAHYLTDENARKTVESGLDRLIISIDGTTQEVYEQYRIGGSLEKVLEGTKNILAWKKKLHASTPHVIFQFLVVKPNQHQLKEVKKMAKELGVGEVRFKTAQIHDYENGSPLIPDIDKYARYRKNADNTYSIKNSLLNHCWKMWHSCVITWDGKIVPCCFDKDAHLVMGELKTNTFKEIWNSAPYIQFRKSLLKSRSEIDMCKNCTEGTTVWA | not soluble
17 | MSFRTIEWRDDKVVMIDQTRLPGEEVYCEYADYKSVAEAIRGMVIRGAPAIGVAAAMGVALGAREIIADTYESFFRQMENVCDVMARTRPTAVNLFWAIERMKRVADENRDKPLDQLREILKTEAIRIEQEDLELCKAIGRHGAALIPEGATVLTHCNAGGLATAGYGTALGVIRAAHDAGKKIQVFADETRPWLQGARLTAWELMKDGIPVTLISDNMAGFFMKRGEIACCVVGADRIAANGDTANKIGTYSVAVLAKENNIPFYVAAPTTTLDLSLENGDQIPIEERHSREVTHLHGFPVAPEGIRVRNPAFDVTPARYISAIITEQGVVSGDYVTGLRGLVAPLEHHHHHH | not soluble
18 | MSRNMFKLAHISDVHLGPLPRLSIQELFSKRITGFVNWHRNRRKHLFASTLDLLLDDIRTHRADHLAVTGDLVNLASGIEIRAAAAWLRALGDPADTSVVPGNHDAYVPGAYEKSMRAWYDYVRGDLAPPQWQEDRRIFPYLRVRDKVAIVGCSTAVATPPFAASGFFSARQARDTVNMLRAAGEAGLFRVVMIHHPPIRGATAFHKRMIGIRRFAAVISTGGAELVLHGHTHLNTLHWLRGQVQPVPVVGIASASQGPGSIKPPAAYNLFSIDGAPGAWELEHHHHHH | soluble
19 | MARIRARGSIPDINAYTGSNVTLKIHKDPLGPYRRITWLHTKNQKILEYNYNSTKTIFESEFKGRVYLEENNGALHISNVRKEDKGTYYMRVLRETENELKITLEVFDPV | soluble
20 | MGSDKIHHHHHHVTEPLKFQWCDRLGDLPREDWNAIAQPLATPFLEWDWLHDLEASGSVIAKAGWQPCHLVVWRGDRLVAAAPLYLKGHSYGEFVFDQQWADLAGRLGLRYYPKLLGMTPLTPAVGYRFLIAPAEDEATLTGLMLREIDRFCDNNQILSCNFLYVDPDWQPLVEAAGYSAWQHHNSVWQNRGFRTFDDYLGMFNANQRRNIKREVKSMERAGLTLTCLSGDQIPRDYFPLMYRFYSDHCDKFGWWGSKYLTRDFFDRAMHHSRHRLLFVAATPEGSDRPIAMSFCVHKGDRLYGRYWGCDHEIDNLHFNVCYYKPIEWAIANGIQSFDPGAGGSHKKRRGFPATPNWSLHRWYQPRFGQILGTWLRQVNELESQEIEAINAELPFSRPEVPLN | not soluble
